Experimental findings from article PMC8733390, “Transcription Factor CitERF16 Is Involved in Citrus Fruit Sucrose Accumulation by Activating CitSWEET11d” are described below.

The target in the data set is T1, CitERF16 (Citrus, UniProt V4VLW3 1-243).
T1 sequence: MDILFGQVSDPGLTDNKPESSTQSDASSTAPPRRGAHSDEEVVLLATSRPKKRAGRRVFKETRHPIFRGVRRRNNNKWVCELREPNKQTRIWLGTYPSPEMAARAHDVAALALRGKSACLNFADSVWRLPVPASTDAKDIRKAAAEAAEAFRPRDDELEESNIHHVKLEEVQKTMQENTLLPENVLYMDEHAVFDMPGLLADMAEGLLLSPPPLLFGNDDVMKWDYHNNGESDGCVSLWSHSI
As to the kind of experiment: EMSA; unlabelled same-sequence probe reduced binding; LightShift Chemiluminescent EMSA kit (Thermo), per manufacturer; buffer, salt, pH and temperature not stated. The note with it: protein: recombinant; tags: His (pET-32a vector fusion); label: 3'-biotin; blunt.

B1: CitSWEET11d promoter probe (dsDNA)
DNA 1: AAACGATGTCGGTACTCGGTCCGCATGCAATCATACAAAACAACAAGAAT
DNA 2: ATTCTTGTTGTTTTGTATGATTGCATGCGGACCGAGTACCGACATCGTTT
As for B1, the binding result is “binds”.
